Our source for the Kd values is article PMC9637739.

Assay [1] concerns the target G. haemolysans IgA1P-E1848A (residues 907-2201) (Gemella haemolysans). Nature of the assay: ELISA; metallo-IgA1P mutant coated on Nunc MaxiSorp plate (20 nM by the methods, 100 nM by the legend of Fig. 2d), blocked 2 h at room temperature, human IgA1 with kappa LC added for 2 h, detected with anti-human IgA HRP and ABTS; estimated Kd.
Assay [2] concerns the target S. pneumoniae IgA1P-E1605A (Streptococcus pneumoniae) (UniProt Q59947). The description is as above.

Turning to “Human IgA1 with kappa LC (monomeric) (antibody)”, the Kd in assay [1] is 1090 µM; in assay [2], 798 µM.
